Here are results for five molecules from publication PMC3834884, “A fully caninised anti-NGF monoclonal antibody for pain relief in dogs” (BMC Veterinary Research, 2013).

For assay [1], the target named is T1, mouse nerve growth factor (muNGF) (Mus musculus, UniProt P01139).
T1 construct: mouse beta nerve growth factor; also called mouse NGF; murine NGF; source: bought: Biosensis (purified mouse NGF)
Put plainly: SPR; ProteOn XPR36, GLM chip; muNGF amine-coupled (50 ug/mL, sodium acetate pH 4.5); NV-01 passed over at 500, 250, 125, 62.5 and 31.25 nM for 60 s; Langmuir fit. As to conditions: both partners purified. For orientation: SPR reads the build-up and loss of mass on a sensor chip optically.

Assay [2] concerns the target T1, mouse nerve growth factor (muNGF). The experiment in a line: cell-based or functional assay.
Assay [3] shares this target. Put plainly: ELISA; plates coated with NGF (0.1 ug/ml muNGF; canine NGF in Figure 2A), blocked with 5% BSA/PBS; CHO cell supernatants with canine anti-NGF IgG 1 h at room temperature in PBS/1% BSA; detected with rabbit anti-canine IgG-HRP. The note with it: one partner purified. (In general: In an ELISA, binding on a coated surface is turned into a signal by an enzyme label.)

In assay [4] the target is T2, canine nerve growth factor with a C-terminal poly-His tag (Canis lupus familiaris, UniProt A0A8I3PYI3).
T2 construct: canine beta NGF, expressed from a cDNA that encodes canine pre-pro beta NGF; the mature form is surmised; also called canine NGF; caNGF; source: HEK293 cells, transient transfection, purified from supernatant (Ni-HiTrap); not shown: poly-His, C-terminal, kept
Described as above. As to conditions: one partner purified.

T1 sequence (P01139 122-241): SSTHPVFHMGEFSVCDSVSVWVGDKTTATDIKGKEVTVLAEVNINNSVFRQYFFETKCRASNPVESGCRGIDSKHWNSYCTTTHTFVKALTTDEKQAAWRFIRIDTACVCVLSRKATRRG

B1: NV-01 (caN2-HCA1-kLC1), fully caninised anti-NGF monoclonal antibody (antibody, V domains shown)
VH: EVQLVESGGGLVQPGGSLRLSCVASGFSLTNNNVNWVRQAPGKGLEWVGGVWAGGATDYNSALKSRFTISRDNAKNTVFLQMHSLRSEDTAVYYCARDGGYSSSTLYAMDAWGQGTSVTVSS
VL: DIVMTQSPASLSLSQGETVTITCRASEDIYNALAWYQQKPGQAPKLLIYNTDTLHTGVPSRFSGSGSGTDFSLTISSLEPEDVAVYYCQHYFHYPRTFGQGTKVELK
notes: caN2 heavy chain variable domain (caninised rat alphaD11 VH, modified framework); caninised alphaD11 light chain variable domain (caN-kLC1); canine kappa light chain constant domain; Canine IgG-A, kappa; also called caninised anti-NGF mAb; copies: 2 + 2
In general, Kd refers to a measure of binding affinity in units of concentration. B1 registered a Kd in assay [1] of less than 1 pM. In assay [2], the “IC50 of inhibition of NGF-induced proliferation of TF-1 cells (1 ng/ml NGF; NV-01 2.5 ng/ml to 0.002 ng/ml); blocked: NGF and its receptor on TF-1 cells” value was determined as 0.02 ng/mL.

B2: caN-HCD2 + kLC1, caninised anti-NGF antibody with canine IgG heavy chain isotype D (antibody, V domains shown)
VH: EVQLVESGGDLVNPGGTLTLSCVVSGFSLTNNNVNWVRQALGRGLEWVGGVWAGGATDYNSALKSRLTITRDTSKSTVFLKMHSLQSEDTATYYCARDGGYSSSTLYAMDAWGQGTLVTVSS
VL: B1 VL
notes: caN heavy chain variable domain (first caninised alphaD11 VH); as the light chain variable domain of m1 (caN-kLC1); canine kappa light chain constant domain; Canine IgG-D, kappa; also called caN-HCD + kLC; ca-HCD2 + kLC1; source: CHO cells, transient transfection, supernatant; purified using Protein L
With B2, in assay [3], the binding result is reported as “binds”.

B3: caN-HCB2 + kLC1, caninised anti-NGF antibody with canine IgG heavy chain isotype B (antibody, V domains shown)
VH: B2 VH
VL: B1 VL
notes: caN heavy chain variable domain (first caninised alphaD11 VH); as the light chain variable domain of m1 (caN-kLC1); canine kappa light chain constant domain; Canine IgG-B, kappa; also called caN-HCB-kLC; type B anti-NGF antibody; source: CHO cells, transient transfection, supernatant; purified on protein A
In the case of B3, the binding result in assay [4] and in assay [3] was “binds” each time.

B4: caN-HCA1 + kLC1, caninised anti-NGF antibody with canine IgG heavy chain isotype A (antibody, V domains shown)
VH: B2 VH
VL: B1 VL
notes: caN heavy chain variable domain (first caninised alphaD11 VH); as the light chain variable domain of m1 (caN-kLC1); canine kappa light chain constant domain; Canine IgG-A, kappa; also called caN-HCA + kLC; type A anti-NGF antibody; source: CHO cells, transient transfection, supernatant; purified using Protein L
As for B4, the binding result in assay [3] is given as “binds”.

B5: caN-HCC1 + kLC1, caninised anti-NGF antibody with canine IgG heavy chain isotype C (antibody, V domains shown)
VH: B2 VH
VL: B1 VL
notes: caN heavy chain variable domain (first caninised alphaD11 VH); as the light chain variable domain of m1 (caN-kLC1); canine kappa light chain constant domain; Canine IgG-C, kappa; also called caN-HCC-kLC; type C anti-NGF antibody; source: CHO cells, transient transfection, supernatant; purified on Protein G
As for B5, in assay [3], the binding result is reported as “binds”.
